Source: paper PMC314469, “Protein Interaction Networks by Proteome Peptide Scanning” (PLoS Biology, 2004)

T1: amphyphisin SH3 (AMPH_HUMAN), P49418
T1 chain: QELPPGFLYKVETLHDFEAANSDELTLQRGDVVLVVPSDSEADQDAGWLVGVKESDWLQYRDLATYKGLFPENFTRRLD


Target: T1, amphyphisin SH3 (AMPH_HUMAN), P49418
Assay: SPOT array

normalised SPOT signal, Boehringer light units (BLU); mean over the file's lines of this peptide	Binder
24.5	PDETLRRPGGPQYG [Q14289 406-419]
18	AARGLRRPEDSSRK [Q9H5N7 170-183]
35.9	PDPAIRRPAEKFLE [P55060 21-34]
24.8	PEYRPKRPANQFVP [P13862 172-185]
2070	PAVPPGRPRRGSLP [Q9UQ51 6-19]
869	PSLTPRRPSSTRAR [Q16623 232-245]
124	PESEIERPERLTAA [Q9UGX2 21-34]
98.6	PEPELSRPIRHHPD [Q01459 44-57]
19.3	PEDAPKRPKEAAPD [Q9NUE8 153-166]
33	PEVYLKRPAHSDDW [O14939 368-381]
548	PDHRPPRPPQPPPP [P51511 326-340]

The next lines start with the binder.

Binder	normalised SPOT signal, Boehringer light units (BLU); mean over the file's lines of this peptide
PEIFLKRPVVEGNR [Q13393 385-398]	32.1
PSPAPPRPARVPAH [Q13078 876-889]	2020
PSTLPRRPPVPSGQ [Q9Y215 243-257]	309
PDQGPQRPPPEGLL [Q16378 41-55]	24.4
PSKEILRPRRTLQK [P01031 668-681]	1040
PDIPPPRPPKPHPA [Q13480 337-351]	635
PEVGPWRPKRLSGV [Q9NPU4 88-101]	4730
ARRLLVRPARLRRH [Q9UIC6 53-66]	1340
PDVWLRRPSTHTSG [Q9C0C1 1172-1185]	60.1
PSYHILRPSRNQDL [Q9BR43 91-104]	412
PERLLLRPARIRAD [Q9BXY2 295-308]	1020
ARRGPGRPRKRKHS [Q9P281 735-748]	121
PDPGFLRPQRAALY [Q9UGB8 1078-1091]	986
PSSRPRRPAVYTSV [Q9UKQ9 224-237]	39.7
PSAKPRRPQDKSQG [Q9P2D1 825-838]	38.3
PFFAPKRPFFPPRY [O75048 890-903]	215
PEAVPGKPPFAEPD [Q9BYN7 703-717]	71.4
ARRPLARPIKPNEI [O94825 179-192]	92.1
PAVPPARPPTAQEV [Q9ULT2 697-711]	92
PEVQLRRPNWSKLV [O60610 754-767]	35.6

Target: endophilin SH3 (SH3G2_HUMAN), Q99962
Assay: SPOT array

normalised SPOT signal, Boehringer light units (BLU); mean over the file's lines of this peptide	Binder
12.2	PDETLRRPGGPQYG [Q14289 406-419]
3.6	AARGLRRPEDSSRK [Q9H5N7 170-183]
52.2	PDPAIRRPAEKFLE [P55060 21-34]
238	PEYRPKRPANQFVP [P13862 172-185]
7480	PAVPPGRPRRGSLP [Q9UQ51 6-19]
1390	PSLTPRRPSSTRAR [Q16623 232-245]
281	PESEIERPERLTAA [Q9UGX2 21-34]
116	PEPELSRPIRHHPD [Q01459 44-57]
23.2	PEDAPKRPKEAAPD [Q9NUE8 153-166]
28.5	PEVYLKRPAHSDDW [O14939 368-381]
1370	PDHRPPRPPQPPPP [P51511 326-340]

The remaining lines, values behind:

Binder	normalised SPOT signal, Boehringer light units (BLU); mean over the file's lines of this peptide
PEIFLKRPVVEGNR [Q13393 385-398]	95.5
PSPAPPRPARVPAH [Q13078 876-889]	3100
PSTLPRRPPVPSGQ [Q9Y215 243-257]	2140
PDQGPQRPPPEGLL [Q16378 41-55]	62.3
PSKEILRPRRTLQK [P01031 668-681]	181
PDIPPPRPPKPHPA [Q13480 337-351]	6240
PEVGPWRPKRLSGV [Q9NPU4 88-101]	2400
ARRLLVRPARLRRH [Q9UIC6 53-66]	67.4
PDVWLRRPSTHTSG [Q9C0C1 1172-1185]	242
PSYHILRPSRNQDL [Q9BR43 91-104]	426
PERLLLRPARIRAD [Q9BXY2 295-308]	106
ARRGPGRPRKRKHS [Q9P281 735-748]	231
PDPGFLRPQRAALY [Q9UGB8 1078-1091]	310
PSSRPRRPAVYTSV [Q9UKQ9 224-237]	260
PSAKPRRPQDKSQG [Q9P2D1 825-838]	78.4
PFFAPKRPFFPPRY [O75048 890-903]	3080
PEAVPGKPPFAEPD [Q9BYN7 703-717]	63.8
ARRPLARPIKPNEI [O94825 179-192]	136
PAVPPARPPTAQEV [Q9ULT2 697-711]	509
PEVQLRRPNWSKLV [O60610 754-767]	152
